Percent reduction of virion-associated CYPA by 1 µM CsA data for one substance are collected here from paper PMC10691330.

Common to all, as to assay: packaging into virions
The target of test [1] is HIV-1 M capsid protein (p24) (HIV-1 group M).
Test [2] deals with HIV-1 P capsid protein (p24) (HIV-1 group P).
Test [3] has as its target HIV-1 O capsid protein (p24) (HIV-1 group O).
The target of test [4] is HIV-1 N capsid protein (p24) (HIV-1 group N).

Sequence of HA-tagged cyclophilin A (CYPA-HA) (P62937 whole entry): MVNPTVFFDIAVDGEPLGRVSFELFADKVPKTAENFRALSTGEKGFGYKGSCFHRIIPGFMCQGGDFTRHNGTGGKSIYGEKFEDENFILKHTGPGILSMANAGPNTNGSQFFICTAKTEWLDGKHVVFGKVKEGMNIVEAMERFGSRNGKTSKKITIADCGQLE

Consider “HA-tagged cyclophilin A (CYPA-HA) (from UniProt P62937 1-165) (natural protein)”, for which the percent reduction of virion-associated CYPA by 1 µM CsA is 40% in test [1], 70% in test [2], 70% in test [3] and 70% in test [4].
